Laboratory results: publication PMC11145553, “SORL1 is a receptor for tau that promotes tau seeding” (The Journal of Biological Chemistry, 2024)

Legend:
Conditions in all cases: both partners purified
[1] = molecular target: T1, Phosphorylated 2N4R tau produced in SF9 cells (human, UniProt P10636-8 1-441, phosphorylated (hyperphosphorylated forms; intermediate tau phosphorylation state); sites not given); assay: SPR; SORL1 VPS10 domain amine-coupled to a CM5 chip; tau in single cycle titrations (3.8-310 nM); 0.15 M NaCl, 0.05% Tween 20, 1 mM CaCl2 pH 7.4; equilibrium analysis (Req from a pseudo-first-order fit)
T1 construct: also called 2N4R SF9; SF9 tau; source: SF9 cells (baculovirus), purified (boiled lysate, HisTrap)
T1 sequence (P10636 other isoform, or with tags, fused parts or gaps): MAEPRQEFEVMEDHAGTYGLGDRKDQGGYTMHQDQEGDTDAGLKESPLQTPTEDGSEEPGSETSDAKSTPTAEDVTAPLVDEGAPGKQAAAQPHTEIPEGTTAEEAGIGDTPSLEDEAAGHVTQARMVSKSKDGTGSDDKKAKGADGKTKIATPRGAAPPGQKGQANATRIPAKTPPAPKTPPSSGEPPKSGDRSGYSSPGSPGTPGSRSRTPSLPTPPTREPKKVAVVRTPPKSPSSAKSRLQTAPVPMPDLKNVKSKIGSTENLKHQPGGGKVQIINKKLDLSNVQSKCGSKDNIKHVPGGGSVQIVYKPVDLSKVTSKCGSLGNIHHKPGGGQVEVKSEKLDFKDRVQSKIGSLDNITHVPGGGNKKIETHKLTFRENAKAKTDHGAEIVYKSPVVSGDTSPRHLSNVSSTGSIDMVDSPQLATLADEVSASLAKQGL

[2] = molecular target: T2, Recombinant human 2N4R tau (full-length tau), WT (human, UniProt P10636-8 1-441); assay: SPR; SORL1 VPS10 domain amine-coupled to a CM5 chip; tau in single cycle titrations (3.8-310 nM); 0.15 M NaCl, 0.05% Tween 20, 1 mM CaCl2 pH 7.4; kinetic analysis, 1:1 fit, KD calculated from the kinetic parameters
T2 construct: the His tag applies only to the in-house protein; The uptake assays used 125I-labeled R&D SP-495; also called monomeric tau; microtubule-associated protein tau; source: His-tagged, E. coli, purified, or bought: R&D Systems (SP-495)
T2 sequence (P10636 other isoform, or with tags, fused parts or gaps): as above

[3] = molecular target: T1, Phosphorylated 2N4R tau produced in SF9 …; assay: as above

Kd [1]: 95 nM
Kd [2]: 15 nM
koff [2]: 0.41 s⁻¹
kon [2]: 5e+07 M⁻¹ s⁻¹
Kd [3]: 78 nM
koff [3]: 0.0061 s⁻¹
kon [3]: 85000 M⁻¹ s⁻¹
B1: Recombinant human SORL1 VPS10 domain, aa 82 to 753 (domain or fragment, UniProt Q92673 82-753, looked up)
chain: SAALQPEPIKVYGQVSLNDSHNQMVVHWAGEKSNVIVALARDSLALARPKSSDVYVSYDYGKSFKKISDKLNFGLGNRSEAVIAQFYHSPADNKRYIFADAYAQYLWITFDFCNTLQGFSIPFRAADLLLHSKASNLLLGFDRSHPNKQLWKSDDFGQTWIMIQEHVKSFSWGIDPYDKPNTIYIERHEPSGYSTVFRSTDFFQSRENQEVILEEVRDFQLRDKYMFATKVVHLLGSEQQSSVQLWVSFGRKPMRAAQFVTRHPINEYYIADASEDQVFVCVSHSNNRTNLYISEAEGLKFSLSLENVLYYSPGGAGSDTLVRYFANEPFADFHRVEGLQGVYIATLINGSMNEENMRSVITFDKGGTWEFLQAPAFTGYGEKINCELSQGCSLHLAQRLSQLLNLQLRRMPILSKESAPGLIIATGSVGKNLASKTNVYISSSAGARWREALPGPHYYTWGDHGGIITAIAQGMETNELKYSTNEGETWKTFIFSEKPVFVYGLLTEPGEKSTVFTIFGSNKENVHSWLILQVNATDALGVPCTENDYKLWSPSDERGNECLLGHKTVFKRRTPHATCFNGEDFDRPVVVSNCSCTREDYECDFGFKMSEDLSLEVCVPDPEFSGKSYSPPVPCPVGSTYRRTRGYRKISGDTCSGGDVEARLEGELVPCP
notes: VPS10 domain of sortilin-related receptor 1 (SORL1), human, residues 82-753; also called vacuolar protein sorting 10 domain of SORL1; VPS10 peptide; source: bought: R&D Systems (9880-LA)
